Two molecules from article PMC10392983, “Allosteric activation or inhibition of PI3Kγ mediated through conformational changes in the p110γ helical domain” (eLife, 2023) can be followed below.

The Kd is a measure of binding affinity in units of concentration. A higher Kd goes with a looser complex. For orientation: kon means a measure of how fast the partners come together.

Holding throughout (details): both partners purified
One assay has as its target T1, p110δ-p85 complex (Homo sapiens (assumed), UniProt O00329;O00459).
T1 construct: p110δ catalytic subunit of class IA PI3K; plasmid as previously described; p85 regulatory subunit; the legend says only p85; also called PI3Kδ
Briefly: BLI; His-tagged NB7 (500 nM) immobilised on Anti-Penta-His biosensor; PI3K complexes in solution (dose response 50-1.9 nM; class IA comparison at 50 nM); 600 s association, 1200 s dissociation; 20 mM Tris pH 8.5, 100 mM NaCl, 50 mM ammonium sulfate, 0.1% BSA, 0.02% Tween 20; global fit to a 1:1 model.

The target of the next assay is T2, p110β-p85 complex (Homo sapiens (assumed), UniProt P42338;O00459).
T2 construct: p110β catalytic subunit of class IA PI3K; plasmid as previously described; p85 regulatory subunit; the legend says only p85; also called PI3Kβ
The description is as above.

The next assay has as its target T3, p110α-p85 complex (Homo sapiens (assumed), UniProt P42336;O00459).
T3 construct: p110α catalytic subunit of class IA PI3K; plasmid as previously described; p85 regulatory subunit; the legend says only p85; also called PI3Kα
The assay is described as above.

A further assay has as its target T4, p110γ-p84 complex (Homo sapiens p110γ; Mus musculus p84, UniProt P48736;Q3U6Q4).
T4 construct: Homo sapiens p110γ (PIK3CG), full-length; Mus musculus p84 regulatory subunit of PI3Kγ; The purification tag stood on p84 only; also called PI3Kγ p110γ-p84; not shown: His10, N-terminal, cleaved; 2x Strep, N-terminal, cleaved
Described as above.

Assay [1] deals with T5, p110γ-p101 complex (Homo sapiens p110γ; Sus scrofa p101, UniProt P48736;PDB).
T5 construct: Homo sapiens p110γ (PIK3CG), full-length; Sus scrofa p101 regulatory subunit of PI3Kγ; The purification tag stood on p101 only; also called PI3Kγ p110γ-p101; not shown: His10, N-terminal, cleaved; 2x Strep, N-terminal, cleaved
The description is as above.
T5 sequence (P48736 whole entry, chain 1 of 2): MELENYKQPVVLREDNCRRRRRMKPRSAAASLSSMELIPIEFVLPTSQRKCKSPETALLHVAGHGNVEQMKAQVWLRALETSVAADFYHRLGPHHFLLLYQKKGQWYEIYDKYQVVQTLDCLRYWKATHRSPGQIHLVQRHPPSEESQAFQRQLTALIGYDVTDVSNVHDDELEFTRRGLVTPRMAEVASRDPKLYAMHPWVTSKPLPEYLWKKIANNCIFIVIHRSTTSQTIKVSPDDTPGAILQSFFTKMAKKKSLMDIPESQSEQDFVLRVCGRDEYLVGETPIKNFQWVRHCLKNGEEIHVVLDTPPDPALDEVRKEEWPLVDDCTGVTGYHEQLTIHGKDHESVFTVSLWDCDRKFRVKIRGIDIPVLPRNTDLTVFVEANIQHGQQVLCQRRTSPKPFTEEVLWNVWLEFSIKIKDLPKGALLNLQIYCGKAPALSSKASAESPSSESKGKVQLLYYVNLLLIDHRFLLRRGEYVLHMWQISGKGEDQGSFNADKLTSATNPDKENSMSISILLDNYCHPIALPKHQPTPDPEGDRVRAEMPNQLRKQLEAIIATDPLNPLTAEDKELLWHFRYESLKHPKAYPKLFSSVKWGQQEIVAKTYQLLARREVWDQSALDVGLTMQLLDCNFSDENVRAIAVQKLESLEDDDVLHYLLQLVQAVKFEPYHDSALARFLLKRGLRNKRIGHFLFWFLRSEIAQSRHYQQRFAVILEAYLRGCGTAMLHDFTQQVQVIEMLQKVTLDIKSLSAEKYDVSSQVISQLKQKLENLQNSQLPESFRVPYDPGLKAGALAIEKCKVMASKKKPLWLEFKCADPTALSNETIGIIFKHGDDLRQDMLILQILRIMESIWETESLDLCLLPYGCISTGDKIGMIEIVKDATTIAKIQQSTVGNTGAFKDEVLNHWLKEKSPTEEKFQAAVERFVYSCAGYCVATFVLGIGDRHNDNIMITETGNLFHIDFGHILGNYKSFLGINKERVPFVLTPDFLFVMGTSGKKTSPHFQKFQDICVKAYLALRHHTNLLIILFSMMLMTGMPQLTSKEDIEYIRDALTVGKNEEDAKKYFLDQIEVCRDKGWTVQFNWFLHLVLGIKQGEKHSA
T5 sequence (O02696 whole entry, chain 2 of 2, further chain): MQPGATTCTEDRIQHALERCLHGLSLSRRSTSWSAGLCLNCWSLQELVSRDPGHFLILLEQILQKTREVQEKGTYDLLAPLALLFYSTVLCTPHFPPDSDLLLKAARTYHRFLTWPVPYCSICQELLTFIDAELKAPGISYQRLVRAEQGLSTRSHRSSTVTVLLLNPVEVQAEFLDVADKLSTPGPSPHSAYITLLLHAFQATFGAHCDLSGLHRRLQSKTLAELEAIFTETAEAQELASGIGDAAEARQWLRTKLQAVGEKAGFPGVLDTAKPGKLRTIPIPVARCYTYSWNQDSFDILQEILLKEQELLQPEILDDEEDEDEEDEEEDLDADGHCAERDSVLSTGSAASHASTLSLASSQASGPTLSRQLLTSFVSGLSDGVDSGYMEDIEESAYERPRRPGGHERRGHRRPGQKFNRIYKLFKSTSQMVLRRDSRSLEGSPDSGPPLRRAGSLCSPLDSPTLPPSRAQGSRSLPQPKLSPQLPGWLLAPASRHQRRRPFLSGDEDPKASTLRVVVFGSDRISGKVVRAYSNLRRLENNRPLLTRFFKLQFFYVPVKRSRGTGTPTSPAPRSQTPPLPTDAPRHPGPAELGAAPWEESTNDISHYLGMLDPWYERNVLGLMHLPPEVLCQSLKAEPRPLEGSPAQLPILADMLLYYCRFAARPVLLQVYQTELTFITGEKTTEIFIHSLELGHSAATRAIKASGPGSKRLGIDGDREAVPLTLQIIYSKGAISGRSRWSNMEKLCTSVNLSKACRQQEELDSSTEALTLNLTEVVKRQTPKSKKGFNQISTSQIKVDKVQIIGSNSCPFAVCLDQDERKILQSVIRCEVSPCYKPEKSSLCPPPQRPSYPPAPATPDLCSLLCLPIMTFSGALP

The target of assay [2] is T6, p110γ-p101 complex (Homo sapiens p110γ; Sus scrofa p101, UniProt P48736;PDB).
T6 construct: p110γ, Homo sapiens, from plasmid pMultiBac-hsp110γ-ssp101; p101 regulatory subunit, Sus scrofa, from plasmid pMultiBac-hsp110γ-ssp101; The purification tag stood on the N-terminus of p101 and was removed by TEV protease; also called p110gp101; not shown: 10x histidine, N-terminal, cleaved; 2x strep, N-terminal, cleaved
Briefly: BLI; His-NB7 (500 nM) immobilised on Anti-Penta-His (HIS1K) biosensor, dipped into p110γ, p110γ-p84 or p110γ-p101 (50-1.9 nM); association 600 s, dissociation 1200 s; Octet buffer 20 mM Tris pH 8.5, 100 mM NaCl, 50 mM ammonium sulfate, 0.1% BSA, 0.02% Tween 20; 1:1 model; the sheet gives one set of constants for each analyte concentration (column Conc. (nM)). A general note: BLI is a label-free optical method that tracks binding on a fibre tip over time.
T6 sequence (P48736 whole entry, chain 1 of 2): as the sequence (P48736 whole entry, chain 1 of 2) above
T6 sequence (O02696 whole entry, chain 2 of 2, further chain): as the sequence (O02696 whole entry, chain 2 of 2, further chain) above

Values joined by “and” are separate entries in the source; they are usually repeats but may differ in a detail not shown here. Equal entries are not always repeated.

T4 sequence (P48736 whole entry, chain 1 of 2): as the sequence (P48736 whole entry, chain 1 of 2) above
T4 sequence (Q3U6Q4 whole entry, chain 2 of 2): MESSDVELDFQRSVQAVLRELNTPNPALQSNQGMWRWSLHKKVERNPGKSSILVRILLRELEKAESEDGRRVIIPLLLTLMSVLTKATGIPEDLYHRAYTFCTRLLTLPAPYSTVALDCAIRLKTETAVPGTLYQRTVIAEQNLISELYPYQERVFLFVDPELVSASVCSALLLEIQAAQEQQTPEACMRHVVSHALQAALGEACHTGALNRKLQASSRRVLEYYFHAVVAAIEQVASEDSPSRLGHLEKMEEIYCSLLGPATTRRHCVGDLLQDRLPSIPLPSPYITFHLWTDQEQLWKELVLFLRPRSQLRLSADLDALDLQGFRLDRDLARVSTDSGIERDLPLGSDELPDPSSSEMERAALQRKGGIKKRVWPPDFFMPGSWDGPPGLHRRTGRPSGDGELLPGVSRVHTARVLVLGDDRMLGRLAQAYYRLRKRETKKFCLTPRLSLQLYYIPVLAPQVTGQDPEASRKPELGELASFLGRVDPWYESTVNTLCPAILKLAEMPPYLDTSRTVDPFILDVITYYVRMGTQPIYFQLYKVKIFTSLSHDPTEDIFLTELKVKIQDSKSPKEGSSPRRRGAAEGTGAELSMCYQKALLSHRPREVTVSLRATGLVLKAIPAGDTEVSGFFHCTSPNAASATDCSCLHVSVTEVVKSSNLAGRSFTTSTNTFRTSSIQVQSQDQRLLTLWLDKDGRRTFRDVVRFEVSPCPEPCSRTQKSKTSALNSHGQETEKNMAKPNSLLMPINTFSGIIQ

B1: Nanobody NB7-PIK3CG (VHH)
VHH: QVQLVESGGGLVQPGGSLRLSCAASGSIFSINAMGWYRQAPGKQRELVAHITSGGSTNYADSVKGRFTISRDNAKNTVYLQMNSLKPEDTAVYYCNEAGDPFLGSTWNGPPAFGSWGQGTQVTVSS
notes: the nanobody chain of PDB 8DP0 (deposited here); Expressed from a pMESy4 vector; also called His-NB7; nanobody 7; source: E. coli WK6 periplasm, purified (HisTrap, Superdex 75); not shown: His6, C-terminal, kept
B1: the binding result with p110δ-p85 complex, with p110β-p85 complex and with p110α-p85 complex was “no binding (tested: 50 nM)” in each case. In addition, the Kd with p110γ-p84 complex and with p110γ-p101 complex [1] was ~2 nM in each case.

B2: Nanobody NB7-PIK3CG (VHH)
VHH: B1 VHH
notes: Expressed from a pMESy4 vector; first described in Rathinaswamy et al., 2021b; also called His-NB7; nanobody 7; source: periplasm of WK6 E. coli, purified (HisTrap, Superdex 75); not shown: His6, C-terminal, kept
Regarding B2, the kon in the assay with p110γ-p101 complex [2] was 105000 M⁻¹ s⁻¹ and 111000 M⁻¹ s⁻¹ and 50200 M⁻¹ s⁻¹.
